This is an account of results in the RNAGym collection of RNA variant scans (doi:10.7554/elife.80360).

B1: Twister Ribozyme (parent)
chain: AACACUGCCAAUGCCGGUCCCAAGCCCGGAUAAAAGUGGAGGGGGCGG

Variants of B1 are the subject of this series. The series is described as follows: self-cleavage, relative activity (ratio to wild type); higher = more cleavage; co-transcriptional.
For the variant AACACUGCCAAUGCCGGUCCCAAGCCCGGACAAAAGUGAAGGGGGCGG [U31C G39A], the self-cleavage was 0.456. Regarding AACACUGCCAACGCCGGUCCCAAGCCCGGAUAAAGGUGGAGGGGGCGG [U12C A35G], the self-cleavage was 0.837.

Take AACACUGCCAAUGCCGGUCCCAAGCCCGGAUACAAGUGGAGGGGGAGG [A33C C46A]: the self-cleavage is 0.934. Then AACACUGCCAAUGCCGGUCCCAAGCCCGGAUAAAAAUGGAGCGGGCGG [G36A G42C], with 0.168.

Regarding AACACUGCCAAUGCCGGUCCCAAGCCCGGCUAAAAUUGGAGGGGGCGG [A30C G36U], the self-cleavage stood at 0.0939.

For AACACUGCCAAUGCCUGUCCCAAGCCCGUAUAAAAGUGGAGGGGGCGG [G16U G29U], the self-cleavage was 0.87. For AACACUGCCAAUGCCGGUGCCAAGCCCGGAUAAAAGUGGAGGGCGCGG [C19G G44C] the value was 0.27; for AACACUGCCAAUGCCGGACCCAAGCCCGGAUCAAAGUGGAGGGGGCGG [U18A A32C], 0.53; for AACACUGCCAACGCCGGUCCCAAGUCCGGAUAAAAGUGGAGGGGGCGG [U12C C25U], 0.736. Then AACACUGCCCAUACCGGUCCCAAGCCCGGAUAAAAGUGGAGGGGGCGG [A10C G13A], with 0.764; and AAUACUGCCAAUGCCAGUCCCAAGCCCGGAUAAAAGUGGAGGGGGCGG [C3U G16A], with 0.248. Take AACACUGCUUAUGCCGGUCCCAAGCCCGGAUAAAAGUGGAGGGGGCGG [C9U A10U]: the self-cleavage is 0.399. Turning to AACACUGCCAAAGACGGUCCCAAGCCCGGAUAAAAGUGGAGGGGGCGG [U12A C14A], the self-cleavage amounted to 0.997.

Consider AACACUGCCAAUGCCGGCCCCAAGCCCGGAUAAAAGUGGAGGGGACGG [U18C G45A], for which the self-cleavage worked out at 0.48.

In the case of AACACUGCCAAUGCCGGUCCCAAGCCCGGAGAAAAGUGGAGGGGGGGG [U31G C46G], the self-cleavage is 0.852. Then AACACUGCCAAUGCCAGUCCCAAGCACGGAUAAAAGUGGAGGGGGCGG [G16A C26A], with 0.437; and AACACUGCCAAUGCCGGUCCCAAGCCCGGAUAAAAGUGCAGGGCGCGG [G39C G44C], with 0.167. Take AACACUGCCAAUGCCGGUCCGAAGCCCGGAUAAUAGUGGAGGGGGCGG [C21G A34U]: the self-cleavage turned out to be 0.0291. As for AACACUGCCAAUGUCGGUCCCAAGCCCGGAUAAAAAUGGAGGGGGCGG [C14U G36A], the self-cleavage came to 0.789. Then AACACUGCCAAUGCCGGUCCCAAGCCCGCAUAAAAGUGGAGGGGGCUG [G29C G47U], with 0.3; and AACACUACCAAUGCCGGUCCCAAGCCCGGAUAAAAGUGGAGGGGACGG [G7A G45A], with 0.397; and AACACUGCCAAUGCCGGUCCCAAGCCCGGAUAAAAGGGGAGUGGGCGG [U37G G42U], with 0.163.

For the variant AACACUGCCAAUGCCGGUACCAAGCCCGAAUAAAAGUGGAGGGGGCGG [C19A G29A], the self-cleavage was determined as 0.27. For AACACUGCCAAUGCCGGUCCCAAGCACGGAUAAAAGUGGAGGGGGGGG [C26A C46G], the self-cleavage was 0.358.

AACACUGCCAAUGCCGGUCCCAAGCCCGAAUAAAAGUGGAGGGAGCGG [G29A G44A]: the self-cleavage is 0.738. As to AACACUGCCAAUGGCGGUCCCCAGCCCGGAUAAAAGUGGAGGGGGCGG [C14G A22C], the self-cleavage amounted to 0.372. Then AACACUGCCAAGGCCGGUCCCAAGACCGGAUAAAAGUGGAGGGGGCGG [U12G C25A], with 0.256; and AACACUGCCAAUGCCGGUCCCAAACCCGGAUUAAAGUGGAGGGGGCGG [G24A A32U], with 0.0696; and AACACUGCCAAUGUCGGUCCCAAGCCCGGAUAGAAGUGGAGGGGGCGG [C14U A33G], with 0.927. For the variant AACACUGCCAAUGCCGGUCCCAACCACGGAUAAAAGUGGAGGGGGCGG [G24C C26A], the self-cleavage came to 0.0895. Regarding AACACUGCCAAUGCCGGUCACAAGCCCGCAUAAAAGUGGAGGGGGCGG [C20A G29C], the self-cleavage turned out to be 0.0857. For AACACUGCUAAUGCCGGUACCAAGCCCGGAUAAAAGUGGAGGGGGCGG [C9U C19A], the self-cleavage was 0.0695. For ACCACUGCCAAUGCCGGCCCCAAGCCCGGAUAAAAGUGGAGGGGGCGG [A2C U18C] the value was 0.0934; for AACACUGCCAAUGCCGCUCCCAAGCCCGGAUAAAAGUGGAGGGUGCGG [G17C G44U], 0.124; for AACACUGCCAAUGCCGGUCCCAAGCACGGAUAAAAGUGGAGGUGGCGG [C26A G43U], 0.11.

As for AACACUGCCAAUGCCGGUCACAAGCCCGGAUAAACGUGGAGGGGGCGG [C20A A35C], the self-cleavage turned out to be 0.191. Then AACAAUGCCAAUGCCGGUCACAAGCCCGGAUAAAAGUGGAGGGGGCGG [C5A C20A], with 0.0707; and AACACUGGCAAUGCCGGUCCCAAGCCCGGAUAAAAGUGGAGGGGGAGG [C8G C46A], with 0.231. As to AACUCUGCCAAUCCCGGUCCCAAGCCCGGAUAAAAGUGGAGGGGGCGG [A4U G13C], the self-cleavage was determined as 0.0685. AACACUGCCAAUGCCGGUCCCAAGCCCGGAUAGAAGUGGGGGGGGCGG [A33G A40G]: the self-cleavage was found to be 0.195. For AACACUGCCAAUGUCGGUCCCAAUCCCGGAUAAAAGUGGAGGGGGCGG [C14U G24U] the value was 0.135; for AACACUGCCAAUGCCGAUCCCAAGCCCGGAUAAAAGUGGAGGGGGCCG [G17A G47C], 0.224. For AACACUGCCAAUGCCGGUCCCACGCCCGGAUAAAAGUGGAGGGGGCGG [A23C] the value was 0.385; for AACACUGCCAAUGCAGGUGCCAAGCCCGGAUAAAAGUGGAGGGGGCGG [C15A C19G], 0.151. Turning to AACACUGCCAUUGCCGGGCCCAAGCCCGGAUAAAAGUGGAGGGGGCGG [A11U U18G], the self-cleavage came out at 0.0666. For AACACUGCCAAUGCUGGUCCCAAUCCCGGAUAAAAGUGGAGGGGGCGG [C15U G24U] the value was 0.122; for AACACUGCCAAUGCCGGCCCGAAGCCCGGAUAAAAGUGGAGGGGGCGG [U18C C21G], 0.0463. Then AACACUGCCCAUGCCGGUCCCAAGCCCGGAUAAUAGUGGAGGGGGCGG [A10C A34U], with 0.951. For the variant AACACUGCAAAUGCCGGUCCCAAGCCCGUAUAAAAGUGGAGGGGGCGG [C9A G29U], the self-cleavage worked out at 0.686. Regarding AAAACUGCCAAUGCCGGUCCCAAGCCCGGAUAGAAGUGGAGGGGGCGG [C3A A33G], the self-cleavage came out at 0.0867.

In the case of AAUACUGCCAAUGCCGGUCCCAAGCCCGGAUAAAAGUGGAUGGGGCGG [C3U G41U], the self-cleavage stood at 0.14.

With AACACUGCCAAUGCCGGUCACAAGCCCGGAUAAAAGUGGAGGGGGCUG [C20A G47U], the self-cleavage came to 0.103. For AACACAGCCAAUGCCGGUCCCAAGCCCGGAUAAAAGUGGAGGGGACGG [U6A G45A] the value was 0.911. For AACACUGCCAAUGCCGGUCCCAAGCCCGGAUAAUAGUGGAGUGGGCGG [A34U G42U] the value was 0.145.
